Molecular target: 개 인플루엔자 바이러스 H3N2 (Canine influenza virus H3N2)
Assay: cell-based or functional assay

B1: 개 인플루엔자 바이러스 단일클론항체 3E2 (antibody, V domains shown)
VH: EVKLVESGGGLVQPGGSLRLSCATSGFTFTDYYMSWVRQPPGKALEWLGFIRNKANGYTTEYSASVKGRFTISRDNSQSILYLQMNTLRPEDSATYYCARDTPVARGVCLLGQGTLVTVSA
VL: DIVMTQSPSSLAVSAGEKVTMSCKSSQSLLNSRTRQNYLAWYQQKPGQSPKLLIYWASTRESGVPDRFTGSGSGTDFTLTISSVQAEDLAVYYCKQSYSLWTFGGGTKLEIK
  HI titer (3E2 mAb 하이브리도마 상층액): 128
  HI titer (3E2 mAb): 131000
